Data published in IntAct's records for PubMed 15774581.

B1: Krueppel-like factor 11 (Homo sapiens), O14901 (parent)
chain: MHTPDFAGPDDARAVDIMDICESILERKRHDSERSTCSILEQTDMEAVEALVCMSSWGQRSQKGDLLRIRPLTPVSDSGDVTTTVHMDAATPELPKDFHSLSTLCITPPQSPDLVEPSTRTPVSPQVTDSKACTATDVLQSSAVVARALSGGAERGLLGLEPVPSSPCRAKGTSVIRHTGESPAACFPTIQTPDCRLSDSREGEEQLLGHFETLQDTHLTDSLLSTNLVSCQPCLHKSGGLLLTDKGQQAGWPGAVQTCSPKNYENDLPRKTTPLISVSVPAPPVLCQMIPVTGQSSMLPAFLKPPPQLSVGTVRPILAQAAPAPQPVFVGPAVPQGAVMLVLPQGALPPPAPCAANVMAAGNTKLLPLAPAPVFITSSQNCVPQVDFSRRRNYVCSFPGCRKTYFKSSHLKAHLRTHTGEKPFNCSWDGCDKKFARSDELSRHRRTHTGEKKFVCPVCDRRFMRSDHLTKHARRHMTTKKIPGWQAEVGKLNRIASAESPGSPLVSMPASA
partner: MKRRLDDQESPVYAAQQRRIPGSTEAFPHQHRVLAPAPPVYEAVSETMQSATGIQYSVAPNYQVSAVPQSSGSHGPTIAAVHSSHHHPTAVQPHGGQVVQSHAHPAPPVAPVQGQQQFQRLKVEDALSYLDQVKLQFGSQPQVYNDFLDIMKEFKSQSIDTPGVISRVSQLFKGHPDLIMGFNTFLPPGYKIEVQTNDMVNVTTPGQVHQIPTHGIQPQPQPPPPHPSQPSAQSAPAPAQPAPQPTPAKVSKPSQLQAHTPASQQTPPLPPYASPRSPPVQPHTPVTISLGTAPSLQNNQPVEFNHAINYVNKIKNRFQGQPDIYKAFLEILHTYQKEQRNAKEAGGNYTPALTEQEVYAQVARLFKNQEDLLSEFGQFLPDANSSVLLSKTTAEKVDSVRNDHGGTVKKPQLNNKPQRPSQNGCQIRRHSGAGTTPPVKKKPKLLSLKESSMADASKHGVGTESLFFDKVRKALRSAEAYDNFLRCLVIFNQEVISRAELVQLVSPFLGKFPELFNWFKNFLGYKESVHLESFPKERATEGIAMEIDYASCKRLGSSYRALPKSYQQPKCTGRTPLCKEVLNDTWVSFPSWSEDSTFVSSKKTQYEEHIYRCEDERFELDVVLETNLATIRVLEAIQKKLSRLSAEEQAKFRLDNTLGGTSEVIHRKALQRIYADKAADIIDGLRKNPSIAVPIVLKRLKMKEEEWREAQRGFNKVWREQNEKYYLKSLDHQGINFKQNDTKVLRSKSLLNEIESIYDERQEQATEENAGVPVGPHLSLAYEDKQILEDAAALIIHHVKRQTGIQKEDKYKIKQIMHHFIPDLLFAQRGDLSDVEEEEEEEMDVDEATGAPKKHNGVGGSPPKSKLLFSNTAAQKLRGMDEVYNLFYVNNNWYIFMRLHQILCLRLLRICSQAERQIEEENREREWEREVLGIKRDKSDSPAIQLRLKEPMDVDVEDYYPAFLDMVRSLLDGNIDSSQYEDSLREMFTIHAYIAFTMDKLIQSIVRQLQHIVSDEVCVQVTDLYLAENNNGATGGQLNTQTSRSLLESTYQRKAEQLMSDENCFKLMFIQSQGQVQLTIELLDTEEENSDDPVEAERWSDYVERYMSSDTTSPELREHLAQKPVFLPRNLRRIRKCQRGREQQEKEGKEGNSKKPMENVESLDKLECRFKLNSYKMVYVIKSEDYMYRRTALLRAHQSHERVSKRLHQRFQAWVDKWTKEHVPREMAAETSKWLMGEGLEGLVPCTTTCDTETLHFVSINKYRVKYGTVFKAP

Variants of: B1
Conditions: with Sin3a

Variant	effect of a mutation on the interaction
MHTPDFAGPDDARAVDIMDICESILERKRHDSERSTCSILEQTDMEAVEALVCMSSWGQRSRKGDLLRIRPLTPVSDSGDVTTTVHMDAATPELPKDFHSLSTLCITPPQSPDLVEPSTRTPVSPQVTDSKACTATDVLQSSAVVARALSGGAERGLLGLEPVPSSPCRAKGTSVIRHTGESPAACFPTIQTPDCRLSDSREGEEQLLGHFETLQDTHLTDSLLSTNLVSCQPCLHKSGGLLLTDKGQQAGWPGAVQTCSPKNYENDLPRKTTPLISVSVPAPPVLCQMIPVTGQSSMLPAFLKPPPQLSVGTVRPILAQAAPAPQPVFVGPAVPQGAVMLVLPQGALPPPAPCAANVMAAGNTKLLPLAPAPVFITSSQNCVPQVDFSRRRNYVCSFPGCRKTYFKSSHLKAHLRTHTGEKPFNCSWDGCDKKFARSDELSRHRRTHTGEKKFVCPVCDRRFMRSDHLTKHARRHMTTKKIPGWQAEVGKLNRIASAESPGSPLVSMPASA [Q62R]	increasing interaction
